{"source": "paper PMC7721705", "about": "“The G protein coupled receptor CXCR4 designed by the QTY code becomes more hydrophilic and retains cell signaling activity” (Scientific Reports, 2020)", "molecular_target": "the molecule itself", "experiment": "dimer bands on SDS-PAGE (Western blot with rho1D4 antibody, silver stain); immunoaffinity-purified receptors in 0.01% or 0.2% detergent; Novex 10% Bis-Tris gels, samples kept at room temperature 10 min, not boiled"}
{"protein": "CXCR4^QTY29 with C-terminal GSSG linker and rho1D4 tag (receptor, UniProt P61073 1-352, looked up, CXCR4, UniProt P61073, with 29 QTY replacements of lipid-facing transmembrane residues; also called QTY variant; source: E. coli cell-free reaction mix (pIVex2.3) with Brij-35; captured from crude supernatant (SPR); not shown: rho1D4 tag (after a GSSG linker), C-terminal, kept) MEGISIYTSDNYTEEMGSGDYDSMKEPCFREENANYNKTFLPTIYSIIYQTGTVGNGLVILVMGYQKKLRSMTDKYRLHLSTADLQFVTTLPYWATDATANWYFGNFLCKAVHVIYTVNLYSSVLILAFISLDRYLAIVHATNSQRPRKLLAEKVVYVGVWTPAQLLTTPDYTFANVSEADDRYICDRFYPNDLWVVVFQFQHIMVGLILPGIVILSCYCIIISKLSHSKGHQKRKALKTTTTLIQAFFACWQPYYTGISIDSYILLEIIKQGCEFENTVHKWISTTEAQAFYHCCTNPTQYAYLGAKFKTSAQHALTSVSRGSSLKILSKGKRGGHSSVSTESESSSFHSS", "values": [{"measurement": "binding result", "value": "binds"}]}
